According to patent US20090181057A1 (BOARD OF TRUSTEES OF THE UNIVERSITY OF ILLINOIS, published 2009):
Changes are numbered by the printed parent chain. Names and notes keep the numbering of the source.

B1: recombinant wild type GPIb-IX expressed in CHO cells (1b9) (receptor)
chain 1: HPICEVSKVASHLEVNCDKRNLTALPPDLPKDTTILHLSENLLYTFSLATLMPYTRLTQLNLDRCELTKLQVDGTLPVLGTLDLSHNQLQSLPLLGQTLPALTVLDVSFNRLTSLPLGALRGLGELQELYLKGNELKTLPPGLLTPTPKLEKLSLANNNLTELPAGLLNGLENLDTLLLQENSLYTIPKGFFGSHLLPFAFLHGNPWLCNCEILYFRRWLQDNAENVYVWKQGVDVKAMTSNVASVQCDNSDKFPVYKYPGKGCPTLGDEGDTDLYDYYPEEDTEGDKVRATRTVVKFPTKAHTTPWGLFYSWSTASLDSQMPSSLHPTQESTKEQTTFPPRWTPNFTLHMESITFSKTPKSTTEPTPSPTTSEPVPEPAPNMTTLEPTPSPTTPEPTSEPAPSPTTPEPTPIPTIATSPTILVSATSLITPKSTFLTTTKPVSLLESTKKTIPELDQPPKLRGVLQGHLESSRNDPFLHPDFCCLLPLGFYVLGLFWLLFASVVLILLLSWVGHVKPQALDSGQGAALTTATQTTHLELQRGRQVTVPRAWLLFLRGSLPTFRSSLFLWVRPNGRVGPLVAGRRPSALSQGRGQDLLSTVSIRYSGHSL
chain 2: CPAPCSCAGTLVDCGRRGLTWASLPTAFPVDTTELVLTGNNLTALPPGLLDALPALRTAHLGANPWRCDCRLVPLRAWLAGRPERAPYRDLRCVAPPALRGRLLPYLAEDELRAACAPGPLCWGALAAQLALLGLGLLHALLLVLLLCRLRRLRARARARAAARLSLTDPLVAERAGTDES
chain 3: TKDCPSPCTCRALETMGLWVDCRGHGLTALPALPARTRHLLLANNSLQSVPPGAFDHLPQLQTLDVTQNPWHCDCSLTYLRLWLEDRTPEALLQVRCASPSLAAHGPLGRLTGYQLGSCGWQLQASWVRPGVLWDVALVAVAALGLALLAGLLCATTEALD
modifications: Ser166 phosphorylated in CHO cells, as the filing says; phosphoserine 609, as the filing calls it
notes: whole, on cells; On intact CHO cells in flow cytometry and adhesion; in Triton X-100 lysate in the co-immunoprecipitation; No GPV
B2: GPIb-IX with wild type GPIbβ and GPIX and GPIbα S609A, expressed in CHO cells (S609A) (receptor)
chain 1: B1 chain 1 with S609A
chain 2: B1 chain 2
chain 3: B1 chain 3
notes: whole, on cells; also called S609A mutant
B3: glycoprotein (GP) Ib-IX-V complex (GPIb-IX) of human platelets (receptor)
chain 1: B1 chain 1
chain 2: B1 chain 2
chain 3: B1 chain 3
chain 4: QPFPCPPACKCVFRDAAQCSGGDVARISALGLPTNLTHILLFGMGRGVLQSQSFSGMTVLQRLMISDSHISAVAPGTFSDLIKLKTLRLSRNKITHLPGALLDKMVLLEQLFLDHNALRGIDQNMFQKLVNLQELALNQNQLDFLPASLFTNLENLKLLDLSGNNLTHLPKGLLGAQAKLERLLLHSNRLVSLDSGLLNSLGALTELQFHRNHIRSIAPGAFDRLPNLSSLTLSRNHLAFLPSALFLHSHNLTLLTLFENPLAELPGVLFGEMGGLQELWLNRTQLRTLPAAAFRNLSRLRYLGVTLSPRLSALPQGAFQGLGELQVLALHSNGLTALPDGLLRGLGKLRQVSLRRNRLRALPRALFRNLSSLESVQLDHNQLETLPGDVFGALPRLTEVLLGHNSWRCDCGLGPFLGWLRQHLGLVGGEEPPRCAGPGAHAGLPLWALPGGDAECPGPRGPPPRPAADSSSEAPVHPALAPNSSEPWVWAQPVTTGKGQDHSPFWGFYFLLLAVQAMITVIIVFAMIKIGQLFRKLIRERALG
modifications: phosphoserine at Ser609 (the filing says Ser609 is constitutively phosphorylated in resting platelets)
notes: whole, on cells; Native complex of platelets from healthy donors; solubilised in platelet lysate in the 14-3-3 bead pull-down; also called glycoprotein Ib-IX; platelet VWF receptor

Tests used:
[1] = biological target: T1, von Willebrand factor (vWF), purified human (human, UniProt P04275 764-2813); assay: flow cytometry of CHO cells with purified VWF and ristocetin, anti-VWF monoclonal antibody
T1 construct: Purified vWF in the flow cytometry and capillary adhesion assays; the vWF of the donor's plasma in the assays with platelet-rich plasma; also called purified vWF
Experimental: Flow Cytometric Analysis of VWF Binding to GPIb-IX-expressing Cells—CHO cells expressing wild type (1b9) and mutant GPIb-IX were grown to confluence to synchronize cell growth. The cells were detached using 0.5 mM EDTA in PBS, pH 7.4. Seventy-five percent of the original volume was then replated in Dulbecco's modified Eagle's medium (DMEM) growth media and cultured for 18 h. For VWF binding assays, cells were detached using 0.5 mM EDTA-PBS, pH 7.4, resuspended to a concentration of 2.25×10⁶ cells/ml and incubated in modified Tyrode's buffer (2.5 mM Hepes, 12.1 mM NaHCO₃, 2.36 mM KCl, 0.136 M NaCl, 1 mM CaCl₂, 1 mM MgCl₂, 0.1% D-glucose, 1% BSA, pH 7.4) for 30 min at 4° C. […] After washing once with Tyrode's buffer, cells were further incubated with 10 μg/ml FITC-labeled SZ-29 (a monoclonal antibody against vWF) in the dark at 22° C. for 30 min and then analyzed by flow cytometry. […]
The cells were then analyzed by flow cytometry without washing. […]
To determine the roles of the above described two phosphoserine residues in regulating ligand binding function of GPIb-IX, CHO cell lines bearing wild type and the mutants of GPIb-IX were incubated with purified VWF in the presence of ristocetin (a VWF modulator that induces VWF binding to GPIb-IX). Binding of VWF was determined by flow cytometry using an anti-VWF monoclonal antibody. […]

[2] = biological target: maltose-binding protein (MBP), conjugated to control beads (UniProt P0AEX9 27-392 = MBP); assay: bead pull-down from platelet lysate, anti-GPIbα immunoblot
Experimental: 14-3-3 binding to GPIb-IX. Binding of GPIb-IX to 14-3-3-conjugated beads were performed as previously described (Du et al., J. Biol. Chem., 271:7362-7367 (1996)). Briefly, 14-3-3-conjugated Sepharose 4B beads and maltose-binding protein (MBP)-conjugated control beads were preincubated with various concentrations of synthetic peptides at 4° C. for 1 h, and then with platelet lysates for an additional 1 h. The beads were washed three times. Bound GPIb-IX was detected by Western blot with a monoclonal antibody against GPIbα, WM23.
To examine if the above peptides interfere with 14-3-3 interaction with GPIb-IX, platelet lysates were incubated with beads conjugated with recombinant 14-3-3-maltose-binding protein (MBP) fusion protein in the absence or presence of MPαC or control peptides. GPIb-IX from platelet lysates specifically bound to 14-3-3 beads but not the control MBP-conjugated beads (FIG. 1B).

Row | Binder | binding result [1] | binding result [2]
1 | B1 | binds | –
2 | B2 | binds | –
3 | B3 | – | no binding
